The results in this text go back to paper PMC6232143.

In assay [1] the target is His6.TssA2^A (1-478) (A. hydrophila). Kind of assay: SEC-MALS; S200 10/300 column, 50 mM Tris.HCl (pH 8.0), 500 mM NaCl, ~20 °C; 4.5-6.8 mg/ml.
In assay [2] the target is His6.TssA2^A CTD (381-478) (A. hydrophila). The assay is described as above.
Assay [3] concerns the target TssA2^A Nt1-Nt2.His6 (231-374) (A. hydrophila). Kind of assay: crystal structure; TssA2^A Nt2 (231-374) from the Nt1-Nt2.His6 construct, 1.76 Å, four molecules in the asymmetric unit.
Assay [4] addresses Native TssA1^B (1-373) (B. cenocepacia). Kind of assay: SEC-MALS; Superose-6 10/300 column, 10 mM phosphate buffer (pH 7.4), 2.7 mM KCl, 137 mM NaCl, ~20 °C. A general note: In gel filtration, larger molecules generally elute earlier.
Assay [5] has as its target TssA1^B CTD (303-373) (B. cenocepacia). Kind of assay: crystal structure; TssA1^B CTD (303-373), 3.08 Å, spacegroup I222, eight monomers in the asymmetric unit.
Assay [6] has as its target His6.TssA1^B CTD H12-H14 (303-358) (B. cenocepacia). Kind of assay: crystal structure; His6.TssA1^B CTD H12-H14 (303-358), 2.35 Å, two molecules in the asymmetric unit.
Assay [7] concerns the target His6.TssA2^A Nt2-CTD (223-478) (A. hydrophila). Kind of assay: SEC-MALS; S200 10/300 column, 50 mM Tris.HCl (pH 8.0), 500 mM NaCl, ~20 °C; 4.5-6.8 mg/ml.
Assay [8] shares this target. Kind of assay: crystal structure; His6.TssA2^A Nt2-CTD (223-478), 3.13 Å, ten subunits in the asymmetric unit.
Assay [9] has as its target TssA1^B CTD fragment (303-347) (B. cenocepacia). Kind of assay: crystal structure; TssA1^B CTD fragment 303-347 (clipped 303-373 construct), 1.78 Å, spacegroup I222.
The target of assay [10] is His6.TssA2^A Nt2 (223-387) (A. hydrophila). Kind of assay: crystal structure; His6.TssA2^A Nt2 (223-387), ethyl mercury phosphate derivative, 2.16 Å, two monomers in the asymmetric unit.

As to His6.TssA2^A (1-478) (natural protein), in assay [1], the stoichiometry N (as a rule, the number of molecules, sites or subunits per partner or assembly) came to 10.
“His6.TssA2^A CTD (381-478) (domain or fragment)”: the stoichiometry N in assay [2] was determined as 10.
In assay [3], “TssA2^A Nt1-Nt2.His6 (231-374) (domain or fragment)” displayed a stoichiometry N of 2.
With “Native TssA1^B (1-373) (natural protein)”, the stoichiometry N in assay [4] was found to be 30 subunits.
Turning to “TssA1^B CTD (303-373) (domain or fragment)”, in [5], the stoichiometry N was 32 subunits.
In turn, “His6.TssA1^B CTD H12-H14 (303-358) (domain or fragment)” registered a stoichiometry N in assay [6] of 2.
Turning to “His6.TssA2^A Nt2-CTD (223-478) (domain or fragment)”, the stoichiometry N in [7] and in assay [8] was 10 in each case.
In assay [9], “TssA1^B CTD fragment (303-347) (domain or fragment)” had a stoichiometry N of 2.
As to “His6.TssA2^A Nt2 (223-387) (domain or fragment)”, in assay [10], the stoichiometry N worked out at 2.
